The target in assay [1] is T1, human CD47 on cells (human, UniProt Q08722 19-323).
T1 construct: also called CHO-K1/huCD47; human CD47 over-expressed in CHO-K1 cells
Description: flow cytometry, blocking of human SIRPα binding to CHO-K1/huCD47 cells; B6H12 is the positive control. (In flow cytometry, cells or beads pass a laser one at a time.)

The target of assay [2] is T2, cynomolgus monkey CD47 on CHO-K1 cells (cynomolgus monkey, UniProt A0A5F8AK49 19-323 (rhesus entry)).
T2 construct: whole, on cells; also called CHO-K1/cyno CD47; CHO-K1/cynoCD47
Description: flow cytometry on CHO-K1/cyno CD47 cells; unit taken from the axis.
Description: (§1) Briefly, binding to cell-expressed cyno CD47 was evaluated on cynomolgus monkey CD47 over-expressing CHO cells. Anti-CD47 antibody dilution series was prepared in FACS buffer. CHO-K1/cynomolgus monkey CD47 cell were transferred to a 96-well U-bottom plate and add CD47 antibody dilution. After 30 minutes incubation at 4° C., cells were washed twice with FACS buffer. […] The cells were washed twice with wash buffer, and then analyzed for binding by using FACSCalibur (BD Bioscience, San Jose, Calif.) and Flowjo software.

Assay [3] concerns the target T2, cynomolgus monkey CD47 on CHO-K1 cells. Described as above. The source holds these as a separate data set.
Description: as §1
The target of assay [4] is T1, human CD47 on cells. The experiment in a line: flow cytometry on red blood cells; unit taken from the axis.
Assay [5] has as its target T1, human CD47 on cells. Description: flow cytometry on CHO-K1/huCD47 cells (FL2-H channel); unit taken from the axis.
The target in assay [6] is T1, human CD47 on cells. Description: flow cytometry, blocking of human SIRPα binding to CHO-K1/huCD47 cells; the box on the sheet is labelled EC50; unit taken from the axis.
The target of another assay is T3, human CD47-His protein (human, UniProt Q08722 19-139, limits assumed).
T3 construct: It includes the signal peptide and the membrane-spanning region, which a soluble protein would lack; not shown: His tag
Description: SPR (Biacore T200), antibody captured, human CD47-His as analyte, 1:1 model.

Assay [7] deals with T2, cynomolgus monkey CD47 on CHO-K1 cells. The experiment in a line: flow cytometry on CHO-K1/cynoCD47 cells; unit taken from the axis.
Description: as §1
Assay [8] concerns the target T1, human CD47 on cells. The experiment in a line: flow cytometry on CHO-K1/huCD47 cells; unit taken from the axis.
Description: (§2) Binding to cell-expressed human CD47 was evaluated on human CD47 over-expressing CHO cells (GenScript, Cat #M00581). Anti-CD47 antibody dilution series was prepared in FACS buffer. CHO-K1/human CD47 cells were transferred to a 96-well U-bottom plate and anti-CD47 antibody dilution was added. […] The cells were then washed twice with wash buffer. Cells were analyzed for binding by FACSCalibur (BD Bioscience, San Jose, Calif.) and Flowjo software.
Assay [9] deals with T1, human CD47 on cells. Description: flow cytometry, blocking of human SIRPα binding to CHO-K1/huCD47 cells.
Assay [10] addresses T1, human CD47 on cells. The experiment in a line: flow cytometry, blocking of human SIRPα binding to CHO-K1/huCD47 cells; the box on the sheet is labelled EC50; unit taken from the axis. This is another data set of the same source.
Description: (§3) After 30 minutes incubation at 4° C., cells were washed twice with FACS buffer.
For assay [11], the target named is T1, human CD47 on cells. Description: flow cytometry on human red blood cells.
Assay [12] deals with T1, human CD47 on cells. The experiment in a line: flow cytometry on human red blood cells; unit taken from the axis.
The next assay addresses T4, CD47 protein.
T4 construct: also called CD47 (ELISA antigen); not shown: The carrier of the coated recombinant protein (an Fc tag as in CD47-Fc, or a His tag as in CD47-His)
The experiment in a line: ELISA on CD47 protein; x axis is log10 of mAb (ng/ml), unit taken from the axis.

Assay [13] has as its target T1, human CD47 on cells. The experiment in a line: flow cytometry on CHO-K1/huCD47 cells; x axis Log(nM), unit taken from the axis.
Description: as §2
Assay [14] deals with T2, cynomolgus monkey CD47 on CHO-K1 cells. The experiment in a line: flow cytometry on CHO-K1/cyno CD47 cells.
Description: as §1
Assay [15] deals with T1, human CD47 on cells. Description: flow cytometry, blocking of human SIRPα binding to CHO-K1/huCD47 cells. This is another data set of the same source.
Description: as §3
Assay [16] deals with T2, cynomolgus monkey CD47 on CHO-K1 cells. The experiment in a line: flow cytometry on CHO-K1/cyno CD47 cells; unit taken from the axis. This is another data set of the same source.
Description: as §1
Assay [17] has as its target T1, human CD47 on cells. Description: flow cytometry on red blood cells.

Read-outs that look alike come from different tables or passages of the source.

Consider seven molecules from patent US20210070855A1 (NANJING LEGEND BIOTECH, published 2021).

For orientation: EC50 means the concentration at which the effect is half-maximal. By IC50 is commonly meant the concentration needed to halve the response being measured. As usually defined, the Kd is the constant that tells how readily two partners part at equilibrium. A word on the koff: it is a measure of how fast the partners let go of each other. For orientation: kon means a measure of how fast the partners come together. By EC50 (read off the curve) is commonly meant the concentration at which the effect is half-maximal.

B1: B6H12 (antibody, V domains shown)
VH: EVQLVESGGDLVKPGGSLKLSCAASGFTFSGYGMSWVRQTPDKRLEWVATITSGGTYTYYPDSVKGRFTISRDNAKNTLYLQIDSLKSEDTAIYFCARSLAGNAMDYWGQGTSVTVSS
VL: DIVMTQSPATLSVTPGDRVSLSCRASQTISDYLHWYQQKSHESPRLLIKFASQSISGIPSRFSGSGSGSDFTLSINSVEPEDVGVYYCQNGHGFPRTFGGGTKLEIK
With B1, in the assay with human CD47 on cells [1], the “IC50 (read off the curve)” value is about 6 nM. In addition, the EC50 in [2] was 13.3 nM; in assay [3], 13.3 nM; with human CD47 on cells [4], 7.74 nM; in the assay with human CD47 on cells [5] it was 2.31 nM. In the assay with human CD47 on cells [6], this molecule registered an IC50 of 5.4 nM.

B2: 108VH4.M4_VL1.M1-hIgG4PE (antibody)
heavy: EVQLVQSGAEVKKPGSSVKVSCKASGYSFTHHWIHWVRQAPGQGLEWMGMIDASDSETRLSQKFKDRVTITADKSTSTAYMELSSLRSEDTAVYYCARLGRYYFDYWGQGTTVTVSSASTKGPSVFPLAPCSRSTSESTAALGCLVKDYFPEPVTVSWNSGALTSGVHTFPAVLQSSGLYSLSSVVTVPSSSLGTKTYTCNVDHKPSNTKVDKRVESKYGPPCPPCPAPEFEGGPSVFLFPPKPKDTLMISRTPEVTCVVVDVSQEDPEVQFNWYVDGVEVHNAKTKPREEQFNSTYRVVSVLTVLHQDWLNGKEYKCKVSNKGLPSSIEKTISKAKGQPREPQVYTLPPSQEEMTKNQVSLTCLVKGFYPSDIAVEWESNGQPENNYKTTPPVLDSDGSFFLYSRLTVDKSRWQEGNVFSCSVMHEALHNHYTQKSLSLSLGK
light: EIVLTQSPATLSLSPGERATLSCRASENVGTYISWYQQKPGQAPRLLIYGASNRYTGIPARFSGSGSGTDFTLTISSLEPEDFAVYYCGESYGHLYTFGGGTKVEIKRTVAAPSVFIFPPSDEQLKSGTASVVCLLNNFYPREAKVQWKVDNALQSGNSQESVTEQDSKDSTYSLSSTLTLSKADYEKHKVYACEVTHQGLSSPVTKSFNRGEC
notes: also called 108VH4.M4_VL1.M1-hlgG4PE; 108VH4.M4_VL1.M1-hIgG4PE-Ka
As for B2, in the assay with human CD47-His protein, the Kd was 1.5 nM, the koff was 0.00046 s⁻¹ and the kon turned out to be 310000 M⁻¹ s⁻¹. For the same molecule, a half-maximal response in assay [7] (EC50) required 0.477 nM. Besides, in the assay with human CD47 on cells [8], a half-maximal response (EC50) required 0.586 nM. In addition, a half-maximal response with human CD47 on cells [4] (EC50) required 3.18 nM. Besides, in the assay with human CD47 on cells [9], the “IC50 (read off the curve)” value was about 1 nM.

B3: 107F11C4 (antibody, V domains shown)
VH: EVQLQQSGAEFVKPGASVKLSCTASGFNIEDTYMHWVKQRPEQGLEWIGMIDPANGKTKYGPRFQDKATVTADTSSNTANLQLSSLTSEDTAVYYCADGIGYYVGAMDYWGQGTSVTVSS
VL: DIQMNQSPSSLSASLGDTITITCHASQNINVWLSWYQQKPGNIPKLLIYKASNLHTGVPSRFSGSGSGTGFTLTISSLQPEDIATYYCQQGHSYPYTFGGGTKLEIK
notes: purified murine anti-CD47 hybridoma antibody; same VH and VL as 107F11B11 and 107F11F10
B3: the EC50 in [2] and in assay [3] was 1.13 nM in each case. In the assay with human CD47 on cells [10], this molecule returned a 50% inhibitory concentration (IC50) of 1.07 nM.

B4: 107F11F10 (antibody, V domains shown)
VH: B3 VH
VL: B3 VL
notes: purified murine anti-CD47 hybridoma antibody; same VH and VL as 107F11B11 and 107F11C4
On to B4, for which, in the assay with human CD47 on cells [11], the “EC50 (read off the curve)” value was about 0.01 µg/mL. Also, the EC50 in assay [2] and in [3] was 0.931 nM each time. Further, the IC50 with human CD47 on cells [10] came to 1.08 nM.

B5: 98E2E12 (antibody, V domains shown)
VH: QVQLQQSGPQLVRPGASVKISCKASGYSFTNHWMHWMKQRPGQGLEWIGMIDPSDSETRLNQQFKDKATLTVDKSSSTAYMQLSSPTSEDSAVFYCARLGRYYFDYWGQGTTLTVSS
VL: NIVMTQSPKSMSVSVGERVTLSCRASDIVGTYVSWYQQKPEQSPKLLIYGASNRYTGVPDRFTGSRSATDFSLTISNVQAEDLADYLCGQSYDSPYTFGGGTKLEIK
notes: purified murine anti-CD47 hybridoma antibody; same VH and VL as 98E2E7; also called 04-98E2E12
As to B5, the EC50 was determined as 0.00963 µg/mL with human CD47 on cells [12], 0.00259 µg/mL with CD47 protein and 8.21 nM with human CD47 on cells [13]. In addition, the IC50 with human CD47 on cells [10] came to 3.74 nM. The “EC50 (read off the curve)” value in assay [14] is about 2 nM.

B6: 108C10A6 (antibody, V domains shown)
VH: QMQLQQSGPQLVRPGASVKISCKTSGYSFTHHWIHWMKQRPGQGLEWIGMIDPSDSETRLSQKFKDKATLTVDASSSTAYMQLNSPTSEDSALYFCARLGRYYFDYWGQGTTLTVSS
VL: NIVMTQSPRSMSMSVGERVTLSCKASENVGTYISWYQQKPDQSPKLLIYGASNRYTGVPDRFTGSGSGTDFTLTISTVQAEDLADYHCGESYGHLYTFGGGTKLEIK
notes: also called murine anti-CD47 antibody 108C10A6; 108C10A6/108C10F5
The molecule B6 displayed a Kd with human CD47-His protein of 0.74 nM. Also, the koff in the assay with human CD47-His protein came to 0.00032 s⁻¹. In addition, the kon with human CD47-His protein was determined as 430000 M⁻¹ s⁻¹. The EC50 with human CD47 on cells [12] was 0.0558 µg/mL; with CD47 protein, 0.0621 µg/mL; with human CD47 on cells [13] it was 8.59 nM; in [16] it was 2.03 nM. Besides, in the assay with human CD47 on cells [15], the “IC50 (read off the curve)” value was about 1 nM.

B7: 108C10A6_Chimeric hIgG1 (antibody, V domains shown)
VH: B6 VH
VL: NIVMTQSPRSMSMSVGERVTLSCKASENVGTYISWYQQKPDQSPKLLIYGASNRYTGVPDRFTGSGSGTDFTLTISTVQAEDLADYHCGESYGHLYTFGGGTKLEIKR
notes: also called CD47-108C10A6_Chimeric huIgG1; chimeric 108C10A6
With B7, the EC50 came to 0.491 nM in assay [7] and 0.551 nM in the assay with human CD47 on cells [8]. Moreover, the “EC50 (read off the curve)” value with human CD47 on cells [17] is about 3 nM. Also, the concentration for half-maximal inhibition (IC50) with human CD47 on cells [6] came to 1.42 nM.
